Measured values: US20090305963A1, “Lipocalin 2 for the Treatment, Prevention, and Management of Cancer Metastasis, Angiogenesis, and Fibrosis” (priority 2005, published 2009)

What was measured:
colon cancer cells [1] = details: ectopic expression of lipocalin 2; cited from earlier work
colon cancer cells [2] = details: ectopic expression of lipocalin 2; cited from earlier work; remark: listed apart in the source
[3] = test system: 4T1 cells injected subcutaneously; experiment: In vivo assay for primary tumor growth and pulmonary metastases; parameters: species or system Balb/c mice
Procedure: FIG. 4A is a graph showing the effect of lipocalin 2 on 4T1 primary tumor growth. 4T1 clones (EV, R, and RL) were suspended in PBS and injected subcutaneously in the backs of Balb/c mice. Primary tumor size was calculated based upon measurements at 1, 2, and 3 weeks. […] FIGS. 4E-F show graphs depicting the lung weight (FIG. 4E) and the number of metastatic nodules on the lung surface (FIG. 4F).
10^7 4T1-(EV, R, and RL) cells were injected subcutaneously in Balb/c mice (Asai et al., Int. J. Cancer. 76:418-422, 1998). Though this model is not the standard orthotopic model used, we have used it extensively in our laboratory to study metastases in lung. Primary tumor volume (V)=a·b·b/2, where a represents the […] tumor diameter. After 3 weeks, lung weights and the number of metastatic nodules on the lung surface were evaluated.

VEGF mRNA = VEGF mRNA by semi-quantitative RT-PCR in 4T1 cells; format: cell-based, mouse; details: RL vs R cells
Procedure: For VEGF assays, two μg of each RNA sample was reverse transcribed using oligo-dT priming and control reaction was prepared for every sample where the reverse transcriptase was omitted. PCR was performed using Taq DNA polymerase (Qiagen) using primers for mouse VEGF (5′-GTACCTCCACCATGCCAAGT-3′, SEQ ID NO: 10, and 5′-GCGAGTCTGTGTTTTTGCAG-3′ SEQ ID NO: 11), GAPDH (5′-ACAGTCTTCTGAGTGGCA-3′ SEQ ID NO: 6 and 5′-CCCATCACCATCTTCCAG-3′, SEQ ID NO: 7) for DNA amplification. PCR amplification was achieved by initial 94° C. incubation for 5 minutes followed by 25 cycles of 94° C. for 30 seconds, 58° C. for 30 seconds and 72° C. for 30 seconds, with 72° C. for 7 minutes as an extension time. These PCR conditions were established for DNA amplification in the linear range. PCR products were analyzed on 1.5% agarose gels.

E-cadherin mRNA = E-cadherin mRNA by semi-quantitative RT-PCR; format: cell-based, mouse; details: EV, R and RL cells in vitro
Procedure: Total RNA was isolated from 4T1 cells in vitro using the SV Total RNA Isolation system (Promega, Madison, Wis.). Tissue RNA was collected with TRIzol® (GibcoBRL, Gaithersburg, Md.). RT-PCR was performed on the Perkin Elmer GeneAmp PCR system 2400 using Omniscript (Qiagen, Valencia, Calif.) for reverse transcription reaction, and Taq DNA polymerase (Qiagen) and primers for mouse E-cadherin (5′-[…]-3′ and 5′-[…]-3′, SEQ ID NO: 5), GAPDH (5′-ACAGTCTTCTGAGTGGCA-3′, SEQ ID NO: 6, and 5′-CCCATCACCATCTTCCAG-3′, SEQ ID NO: 7) and HA-tagged lipocalin 2 (5′-GGAGTACTTCAAGATCAC-3′, SEQ ID NO: 8 and 5′-[…]-3′, SEQ ID NO: 9) for DNA amplification. The PCR conditions were established for DNA amplification in the linear range. RT-PCR products were analyzed on 1% agarose gels.

[4] = test system: serum-response element (SRE); experiment: SRE-luciferase assay; format: cell-based, mouse; details: RL cells; 48 hour incubation in serum free DMEM
Procedure: After transient transfection of the plasmids, cells were incubated for 20 hours in 10% FCS and luciferase activity in the cell lysates was determined using a luminometer normalized by sea-pansy luciferase activity under the control of the thymidine kinase promoter. The Dual-Luciferase Reporter Assay System was purchased from Promega (Madison, Wis.) (Hanai et al., J. Biol. Chem. 277:16464-16469, 2002).
For these experiments, EV and R cells were starved in DMEM without serum for 48 hours. During this time, half of the R cells were incubated with 50 μg/ml of lipocalin 2 protein with iron-loaded siderophore (R+Lipo:Sid:Fe), after which all cells were incubated with 10% FCS containing DMEM for 20 minutes and then harvested for western blotting with phosphospecific antibodies. Signaling events downstream of ERK activation were then monitored with a multi-copy serum-response element (SRE)-luciferase construct introduced into EV, R, and RL (FIG. 6B). For these experiments, an SRE-luciferase assay was performed on 4T1 clones after the 48 hour incubation in serum free DMEM. […] Just like R cells treated with exogenous protein (FIG. 6A), R cells infection with recombinant adenovirus carrying lipocalin 2, but not GFP, reduced SRE-luciferase activity, MEK, and ERK1/2 phosphorylation, without altering ras expression.
To localize the effect of lipocalin on ras-MAPK signaling, we utilized an adenovirus and expression plasmid encoding a constitutively active MEK (MEK-DD) (Murakami et al., Cell Growth Differ 10:333-342, 1999). MEK-DD adenoviral infection of EV cells led to increased SRE-luciferase activity (increased MAPK activity). […] RL cells in a 6-well plate were infected with an adenovirus carrying the MEK dominant active form (MEK-DD) and a Lac-Z adenovirus at the indicated multiplicities (MOI) in 2% serum including DMEM medium for 48 hours. Cells were then trypsinized, respread on 6-well plate at 5-10% confluency, and incubated with 10% serum including DMEM medium. Cell lysates were collected for western blotting 48 hours after the final plating (FIG. 6D). […]

B1: lipocalin 2: human lipocalin 2 cDNA (HA tagged) in pcDNA3.1, stably expressed in 4T1-ras cells (RL clone); iron-siderophore binding protein (protein, UniProt P80188 21-198, looked up)
Neutrophil …: QDSTSDLIPAPPLSKVPLQQNFQDNQFQGKWYVVGLAGNAILREDKDPQKMYATIYELKEDKSYNVTSVLFRKKKCDYWIRTFVPGCQPGEFTLGNIKSYPGLTSYLVRVVSTNYNQHAMVFFKKVSQNREYFKITLYGRTKELTSELKENFIRFSKSLGLPENHIVFPVPIDQCIDG
modifications: HA tag
**Q.** With B1 as the molecule, how does the liver metastasis (colon cancer cells [1]) read?
**A.** inhibited liver metastasis

**Q.** And the “invasiveness of colon cancer cells” value (colon cancer cells [2])?
**A.** suppressed the invasiveness of colon cancer cells

**Q.** And the primary tumor size ([3]; R vs RL tumors, 1, 2 and 3 weeks post-inoculation)?
**A.** Primary tumors of R cells were significantly larger than lipocalin 2 cells

**Q.** And the “reduction of number of metastatic pulmonary nodules” value ([3]; RL cells compared to R cells, 3 weeks after s.c. injection)?
**A.** 80%

**Q.** And the lung weight ([3]; RL compared to R cells, 3 weeks)?
**A.** lung weights were less

**Q.** And the “ras-augmented VEGF mRNA level” value (VEGF mRNA)?
**A.** reduced this upregulation

**Q.** What about the “E-cadherin mRNA” value (E-cadherin mRNA) of the same molecule?
**A.** remained unchanged

**Q.** What about the “SRE-luciferase activity relative to R cells” value [4] of the same molecule?
**A.** about half to two-thirds
